B1: Transcription intermediary factor 1-beta, residues 620 to 671; numbered along this chain, Q13263 (parent)
chain: TLDDSATICRVCQKPGDLVMCNQCEFCFHLDCHLPALQDVPGEEWSCSLCHV

Variants of: B1
Assay: abundance fitness (aPCA) (normalised: wild type 0, dead -1); higher = more abundant; growth selection in yeast, the domain comes from the species named
Conditions: Homo sapiens

Abundance fitness of substitutions, site by site:
R10: F -0.271 | E -0.476 | S 0.161 | T -0.037 | G -0.291 | K 0.206 | N 0.094
L49: G 0.334 | Q 0.263 | W 0.066 | Y 0.131 | K 0.27 | I -0.045 | M 0 | D 0.277 | F 0.192
E44: P -0.369 | K -0.172 | Q -0.057 | R -0.08 | V -0.217 | I -0.35
A36: V 0.06 | Q -0.633 | G -0.116 | S 0.079 | C -0.713 | E 0.034 | Y -0.499 | P 0.077 | K -0.183 | W -0.527
V19: W 0 | S -0.613 | F -0.311 | M -0.157 | C -0.536 | I 0.008
Q38: S -0.295 | E -0.434 | K -0.18 | L -0.227 | V -0.132 | F -0.39 | G -0.181 | R 0.023
D31: K -0.528 | T -0.308 | Q 0.04 | I -0.501 | H -0.024 | P -0.175 | N 0.175
S46: L -0.003 | W -0.131 | R -0.101 | N 0.018 | K 0.155 | H -0.113 | A 0.128
T7: L -0.41 | F -0.383 | K -0.022 | N -0.176 | D 0.024 | I -0.013 | S -0.079
K14: L -0.513 | S -0.35
S5: K -0.03 | T -0.193 | D -0.267 | W -0.307 | M -0.267 | Q -0.215 | I -0.04
V11: G -0.221 | M 0.059 | H -0.659 | E -0.072 | P -0.779 | N -0.142 | C -0.39 | S -0.312
A6: L -0.202 | P -0.234 | M -0.069 | S -0.223 | W -0.86 | D -0.274 | R -0.275
Q13: V -0.518 | W -0.063 | D 0.144 | L -0.084 | G -0.016 | A -0.322
H33: G -0.159 | A -0.013 | I -0.325 | D 0.086 | S 0.012 | Y -0.294 | M -0.205 | P -0.344 | V 0.033
C27: Y 0.002
P41: D -0.245 | A -0.368 | F -0.439 | G -0.202 | T -0.619 | E -0.073 | V -0.254
E43: N -0.089 | P -0.032 | S -0.007 | Q -0.298 | Y -0.486 | A 0.035 | L -0.085
D4: N 0.074 | G -0.219 | A -0.141 | K 0.284 | L 0.135 | F -0.19
L37: K -0.421 | R -0.106 | P -0.138 | F -0.344 | H -0.215 | W 0.118 | E -0.499
C21: N -0.565 | Q -0.8 | A -0.995 | D -0.575 | H -0.445
Q23: W -0.383 | I -0.373 | R -0.172 | L -0.199 | P -0.93 | S -0.089 | D -0.234 | F -0.292
L34: G 0.098 | E 0.188 | T -0.065 | C 0.274 | P 0.036 | D 0.325
V52: Y -0.284 | G -0.32 | F -0.18
I8: H -0.123 | Q 0.085
C24: M -0.918 | D -0.769 | N -1.19 | T -0.842 | I -1.07 | S -1 | H -1.01 | R -0.685 | V -1.08

— the Human Domainome abundance scans (Beltran et al. 2025)
